pKd: −log10 of the molar value.
Target: polymerized MTs purified from the bovine brain (bovine) (UniProt Q6B856)
Assay: co-sedimentation

pKd: 5.22
Substance: GST-M1 fusion protein encompassing ACF7's M1 domain (domain or fragment)
